{
  "source": "paper PMC10277598",
  "system": "CsrA-His6",
  "experiment": "EMSA",
  "conditions": "10 mM MgCl2; apparent Kd, linear regression (54.7 nM in Fig. S5); 0.5 nM labeled RNA, 0-400 nM CsrA, 10 mM MgCl2, 100 mM KCl, 32.5 ng total yeast RNA, 20 mM DTT, 7.5% glycerol, 4 U SUPERasin, 37 C 30 min; native PAGE in 1X …",
  "data": [
    {"substance": "hflK leader RNA (-86 to +48)", "values": [
      {"measurement": "Kd", "value": 55, "unit": "nM"}
    ]}
  ]
}
